What is called Kd is the concentration at which binding is half-saturated. Low values mean a tighter complex, high ones a looser complex.

This data set deals with FANCI-Ub (mono-ubiquitinated at K523);FANCD2-Ub (mono-ubiquitinated at K561) (human;human) (UniProt Q9NVI1+Q9BXW9). The data set can be described thus: EMSA. The settings on record: nick. Background: Mobility shift assays separate free from complexed probe on a gel.
FANCI-Ub (mono-ubiquitinated at K523);FANCD2-Ub (mono-ubiquitinated at K561) (human;human), sequence (Q9NVI1 whole entry, chain 1 of 2): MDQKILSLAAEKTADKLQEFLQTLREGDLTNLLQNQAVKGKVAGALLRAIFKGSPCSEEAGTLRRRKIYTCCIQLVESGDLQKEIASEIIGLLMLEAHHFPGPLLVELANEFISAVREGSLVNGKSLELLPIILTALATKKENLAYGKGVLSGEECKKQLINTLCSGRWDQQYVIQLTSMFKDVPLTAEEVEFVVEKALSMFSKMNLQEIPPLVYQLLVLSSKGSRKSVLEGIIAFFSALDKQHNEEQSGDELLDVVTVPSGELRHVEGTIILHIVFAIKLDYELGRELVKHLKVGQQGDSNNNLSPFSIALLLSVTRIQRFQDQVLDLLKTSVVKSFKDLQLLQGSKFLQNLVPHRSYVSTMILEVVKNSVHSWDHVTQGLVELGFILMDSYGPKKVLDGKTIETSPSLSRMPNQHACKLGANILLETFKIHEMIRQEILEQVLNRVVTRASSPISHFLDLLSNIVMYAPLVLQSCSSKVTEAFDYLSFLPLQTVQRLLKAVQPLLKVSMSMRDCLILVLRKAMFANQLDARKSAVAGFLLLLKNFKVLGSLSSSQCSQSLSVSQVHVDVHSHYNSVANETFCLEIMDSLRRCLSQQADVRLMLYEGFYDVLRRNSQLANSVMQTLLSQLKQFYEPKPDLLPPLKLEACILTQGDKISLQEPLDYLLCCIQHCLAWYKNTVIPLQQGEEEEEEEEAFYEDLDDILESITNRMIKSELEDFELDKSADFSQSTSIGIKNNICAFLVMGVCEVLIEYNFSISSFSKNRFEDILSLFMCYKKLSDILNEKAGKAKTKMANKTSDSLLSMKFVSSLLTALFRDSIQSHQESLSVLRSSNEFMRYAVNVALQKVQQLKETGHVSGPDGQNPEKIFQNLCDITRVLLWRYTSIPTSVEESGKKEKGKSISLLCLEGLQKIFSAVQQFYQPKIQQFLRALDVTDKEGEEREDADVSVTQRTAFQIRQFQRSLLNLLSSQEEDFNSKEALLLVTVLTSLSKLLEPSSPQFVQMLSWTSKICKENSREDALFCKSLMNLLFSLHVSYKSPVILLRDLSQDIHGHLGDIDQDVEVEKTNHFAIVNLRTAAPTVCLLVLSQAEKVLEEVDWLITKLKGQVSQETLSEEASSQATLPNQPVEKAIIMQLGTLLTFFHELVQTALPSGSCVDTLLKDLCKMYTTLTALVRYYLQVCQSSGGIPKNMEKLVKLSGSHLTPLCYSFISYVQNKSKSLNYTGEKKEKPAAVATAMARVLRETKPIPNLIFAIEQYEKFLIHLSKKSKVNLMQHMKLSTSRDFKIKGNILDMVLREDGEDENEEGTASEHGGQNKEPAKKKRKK
FANCI-Ub (mono-ubiquitinated at K523);FANCD2-Ub (mono-ubiquitinated at K561) (human;human), sequence (Q9BXW9 whole entry, chain 2 of 2): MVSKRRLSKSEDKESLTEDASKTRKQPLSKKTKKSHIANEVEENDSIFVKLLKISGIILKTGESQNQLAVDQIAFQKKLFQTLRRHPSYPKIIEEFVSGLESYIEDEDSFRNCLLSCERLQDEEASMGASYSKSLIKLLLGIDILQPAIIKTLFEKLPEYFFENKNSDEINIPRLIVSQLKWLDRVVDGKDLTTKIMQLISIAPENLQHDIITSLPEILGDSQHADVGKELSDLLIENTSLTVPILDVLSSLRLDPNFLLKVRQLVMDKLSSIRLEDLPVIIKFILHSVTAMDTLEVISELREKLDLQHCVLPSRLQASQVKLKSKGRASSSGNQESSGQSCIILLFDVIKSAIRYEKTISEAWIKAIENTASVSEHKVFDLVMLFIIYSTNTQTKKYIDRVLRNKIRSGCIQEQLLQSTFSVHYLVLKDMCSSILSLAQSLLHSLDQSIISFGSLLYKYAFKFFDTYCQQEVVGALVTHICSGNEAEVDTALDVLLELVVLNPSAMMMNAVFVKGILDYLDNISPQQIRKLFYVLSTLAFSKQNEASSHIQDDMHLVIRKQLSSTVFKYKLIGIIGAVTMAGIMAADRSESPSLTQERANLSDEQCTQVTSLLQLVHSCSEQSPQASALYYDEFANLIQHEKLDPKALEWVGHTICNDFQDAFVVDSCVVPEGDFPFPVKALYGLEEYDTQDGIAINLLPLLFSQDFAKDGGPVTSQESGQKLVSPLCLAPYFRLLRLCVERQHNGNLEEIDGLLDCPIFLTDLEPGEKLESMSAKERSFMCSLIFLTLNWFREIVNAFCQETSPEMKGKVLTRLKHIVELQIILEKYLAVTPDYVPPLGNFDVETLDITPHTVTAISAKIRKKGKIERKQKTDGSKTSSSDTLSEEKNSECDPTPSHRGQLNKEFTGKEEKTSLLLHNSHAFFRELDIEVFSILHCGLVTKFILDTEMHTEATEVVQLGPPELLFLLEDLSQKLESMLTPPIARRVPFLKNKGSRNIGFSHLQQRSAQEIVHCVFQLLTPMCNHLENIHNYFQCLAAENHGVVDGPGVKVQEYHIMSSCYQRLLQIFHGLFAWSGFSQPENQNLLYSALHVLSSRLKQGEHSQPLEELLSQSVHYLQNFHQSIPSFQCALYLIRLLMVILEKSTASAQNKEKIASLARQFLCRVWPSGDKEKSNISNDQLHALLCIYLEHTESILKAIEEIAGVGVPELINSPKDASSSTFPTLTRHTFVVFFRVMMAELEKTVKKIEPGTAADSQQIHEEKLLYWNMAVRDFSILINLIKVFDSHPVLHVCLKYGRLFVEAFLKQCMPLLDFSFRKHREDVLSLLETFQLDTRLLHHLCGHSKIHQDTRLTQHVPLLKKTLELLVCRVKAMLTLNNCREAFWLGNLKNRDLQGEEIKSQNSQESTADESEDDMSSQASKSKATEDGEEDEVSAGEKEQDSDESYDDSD

With nicked DNA, EMSA, the Kd was found to be 0.02 µM.

The values above are taken from paper doi:10.1101/854133.
